# Source: the DeepSol protein solubility set
# Test: soluble on expression in E. coli; label from the status in PepcDB or PDB records
row,Sequence,soluble on expression in E. coli
1,MAHHHHHHMLRHCIPRLGIAKTVIKDNYSLSTLTNGLRVLTCDDGNGVTGMGLFMLNGAKFESPDNAGAAAVFEALPLRDNQIYTSREISQALSGLGNAFKVTNNKEALSVILMLPRYHQRDGLELLNAMCLHPTRNEEEFRIAKEKTHERTLLYDRDATSVCFELVHEAGWNGKGLGHSLNPKKEELDKLTLEKFTAFHSACTRPERTVLAATGVADHKSFAEEVEKLLRFNNADVAVQAMPQLQPGYYPYTGGSRLVHRTEAPESVNKFQEKSLSHVALFFQGVPINHPDYYNISVIQTLLGGGTSFSSGGPGKGMQTKLFREVLNREGFLHGLECITAWYSDGGLFGLYGTAPHQAVVSLLNVMIYQAASICQRVSPTHLEMAKNQLRSQLILLGEGREQLLSDMGFNLVVHNHIITATETMEGTRNITLDDLKRVCADMIKKPLTFTVYGDTTKMPSHESLEETVRKTYEKLN,not soluble
2,MAKVCYFTGRKTVSANNRSHAMNKTKRVAKPNLQKVTVLIDGKPKKVWASARALKSGKVERVLEHHHHHH,not soluble
3,MGSDKIHHHHHHMINYTELEENIKKNNIENVYIMCGFNEKLMKESINKILKKSISQDFESLNYSVFDGNEVEFEDILNACETVPFMSEKRMVVVYRAGFLNDNSSGSNKNSDKLIKDIEKYVPNVPKHCILVMYYVFDNTREKPSYRVKKFDKKVCVVEFSKLRGMQFQKKVKDVFAEKGKQIGKTELNYFCSRVENNMDIVYNEIEKLCCYTLEKEITKESIDNLLQPNETDDIFNLVDYISQSKPEMAITVLNEIMYKGVKANSILYMVERQFKLMLSIKIGIENKQSKEALVKELKLNPYVCDKMINECKRFTMKKILKSLDICLRTEKELKSVSGDPKFKMEVLIINLAII,not soluble
4,MVHHKLKNDPSGHDWFHIVRVRNLAVELAHKEGANTFICQMAALLHDIIDDKICQDSKQASYELTQWLYSQDLAIAEVEHILDILENISFKAGTGLTMKTLEGQIVQDADRLDAMGAIGIARTMAYSGSKGRLIHDPNLKPRENLTLEEYRNGQDTAIIHFYEKLLKLKDLMNTKQGKMLAQKRHDFLELYLAEFYAEWNGKRLEHHHHHH,not soluble
5,MALINNRSKFSFFNKVRVLLKNILKPDESVEDVVDEHFRFTSSLSLDAPDGQIENLYQDEKDGKYHLTLFDNGLTGATGILPAAYTEWLIERKLRYNDDAPKAFMDMFDHRMYCLSYLAWQKMHLSGDENRRDNNVLNNVLLSLGGITPQTVSVTGLAYVAFYSQPVRSLAGLEQLLSLIHQIRVSINPFRGTFENTEPSEQGVLGNCLYTLGEGPVIGNVRWVVDSHFDVVLGPVDYRKAQELMPGKDSHYFIRQQIRSYIGDVLKFKIYVKIYPGNNDNQLNINNKLGFNLSLGSETENYKERCFCIF,not soluble
6,MHRELLDALSVITEEEQRILDEQRGIDPQLYTEKKELIVDSEKLLKKGKLIQVRPHTRFVNFPKHKHNYVEVIYMCQGTTTHILNGSKVILEAGDLLFLNQNAEQEILPAGEQDIAVNFIVLPEFFDTAFSMMDMEEENALKEFLVGALCGKNDNTSYLYFHVAEILPIQNLVENMVWTIFYDQPNKRRCNQITMGLLLLQLLNHVDRMETGTAAFDRELTG,not soluble
7,MPQLSRYSDEHVEQLLSELLSVLEKHKAPTDLSLMVLGNMVTNLINTSVAPAQRQAIANSFARALQSSISEDNAH,not soluble
8,GPGSMRALTFRSSLCAGRTAVGAMCFGRLWASSTSATEGSEKQNVTEDSETVSVAPVSPEAYAKLEKELSDAKERIAELKKEVLYRAADAENARRIGSEDVTKAKAYGITSFGKDMLDVVDTLERGLEAITKLPQAEVEGHKTLSSIHTGIKLSLKLLLNNLAKHGIEKLDVAVGAKFDPNFHDALLKVPPTAEAPPGHISTVLKTGYKIQDRVLRASQVGVASDD,not soluble
9,MAGASETYTHTLTDVPIDIKYDSDDYFISGYSYGADVYMSSVNRVKLDSEINEDTRKFKVVADLTNMKPGTHKVPLKVVNLPSGVNATVSPTTITVTMGKKKTLEHHHHHH,soluble
10,AIAFKRKTAWFSDSVEKEVISFWVSEGGDISSWKTAGYLFSDDASSEDTKRIYGSEDYVKNRATVFHSSFLLACQPRQSVTSVPIGHYVLPPDFVQNEMKAIIGRFIWEKDEQVICEEQINPEVPKDILSGETEDHALRERSSQDDYQTVTSQSKVCSCCEMRQYPVNNMISGYVHIDQMRKYSGELKDFLPSLHGHDVSRSNDPTPPFHRKAV,soluble
11,MKEIIARHKAGEHLGICSVCSAHPLVIESALLFDLNTDNKVLIEATSNQVNQFGGYTGMKPADFRDFVYGIAQEVGFPRERLILGGDHLGPNCWQNEPAAAAMEKSVELIKAYVAAGFSKIHLDASMSCADDPTPLDPMVVARRAAVLCKAAEGTANEEQKCHLTYVIGTEVPVPGGEASTIGSVHVTREVDAARTLETHQIAFRESGLEEALSRVIAIVVQPGVEFDHTQIIHYQPQAAQALSAWIKETPMVYEAHSTDYQTRQAYRALVRDHYAILKVGPALTFALREAIFALAQMENELISPEQRSRVLEVIDEVMLNEPGYWKKYYRPTWSQAMVDIHFSLSDRIRYYWPHPRIRQSVEKLIANLNNVTLPLGLISQFMPVQFERLSEGVLTPTPHNLIIDKIQDVLRAYRFGCTPDVA,not soluble
12,MGSDKIHHHHHHMAMVVLGAGGGLGRAITLELSKQYPDERIFALSRQPEVPETDSSDVTYCRIEDYDEKALGAWVSEFKNNGEQLSGVVSTIGMLHDEETFPEKKLTDITADNLNKLFSVNAVKPMLALKAFLPILDRKKTRFWVQLSAKVGSIEDNYLGGWYAYRSSKAGLNMLLKTASIELKRTHKNLIVAAIHPGTTDTRLSEPFQERISTDKLYSPELSAERIVAVVKNLKPENTGALWHWDGSRLPY,not soluble
13,PREIVDFHAKLINDTPLSTYVGFLDDLQEHDEIDNARALSGIPGVVIVGEQDAVTPQSQSERIVSLWSDAGLQIAPNAGHMIILEQPAIVNKAIDQMVQQAAQNVQKDDA,not soluble
14,MGSDKIHHHHHHAQTDSMLIRPTVDKRVELLSIIFRLTGNPEYNRNDFKLYTDRIESHFSPYKNHELISFARSLVKTDGVSYDAVMSMAINLDNQFNLPADYGSLDSRWNRNQVGPFIKLLKKFVKDSRFDAFYHSNENLYQEAVSRFMPIYKSIDTQWYNDFYGQKSNDRFHIILSMSNGPGNYGPSVTDKENVHNVFSVMGAWVTDSVGMVVYPPELILPILIHEFNHSFINFDPEMFRTSGEQIYAAVGEQMARQAYGQWSIVLTEAMVRAAVIKYMKDHNFPAVEITKETVIQKTRGFVWISKLVDELEKYSSDRTTYPTLNSYMPRLAEAYTGFAQYTANYDSIRPKVVSIDEFTNGDTTVRSDIKTITVHFDRPLVGRGHSFNYGHLGMEAMPKIINVNYANDNRTVIIGVELLPGKEYGITLLGLSFRTPEGDAIKPYEISFKTAE,not soluble
15,MPDGGLAAPDRAVLPRAMTPPPSTSRTYDAVIVGGGHNGLVAAAYLARAGRSVLVLERLDHTGGAAVSTKPFAGVDARLSRYSYLVSLLPKKIVRDLGLDFRVRARTVSSYTPVERAGRPTGLLVGGGERRTRESFARLTGSQREYDAWQRFYAMTGHVAQRVFPTLTEPLPTRDELRRRVDDETAWRALFEEPVGVAIEEHFDDDLVRGVALTDALIGTFADAHDPSLAQNRCFLYHVIGGGTGAWDVPVGGMGALTDALAGAARAAGAVLATGHEAVRIEADGHGAEVTFRSADGEGVAAARHVLVNASPRELAALTGDAPPAPAEGAQLKVNMLLTRLPRLRDPDADPREAFAGTFHIAEGYEQLAAAHARAAAGELPAAPPSEIYCHSLTDPTILGPGPAAKGMHTLTLFGLHTPARLFARDNDAVRAELLKSTLAQLDAHLAEPLADCLATDADGRPCIEARSPLDLERDLGLPGGNIFHRELSWPHAQEGTGHWGVETGRARVLLCGAGAVRGGGVSGVPGHNAAMAVLDGTTGLEHHHHHH,not soluble
16,MAHHHHHHMYFVIEEWKNVIIKPSQLGPRYQQYIEDMLRNSVEGQCSVKYGYVICVIRIIHSEPGRVQDGTGMIVVKVKYQAIVFKPFKDEVLDAIVTDVNKLGFFAQAGPLKIFISRTAIPKYFEYSEDLHYPCFSSGDYNIKPQTTVRIKLQGIRYDLSNMFAIATINNEYLGCIESNILQVM,not soluble
17,MAHHHHHHMLTLNRRDKEICQELIRKNFTLSQIQSYNEPEYSGWVSRRRRVSNIFVWELNWLATSGNYLLCFSQKKDSCHPIKIMYLPEAIIRRCSMKEECCVGHPFVLEIVPCLHFVREEKGLFPVKPHEVHFSFENVEDLCGTIAFLAKISARHVRTASITFGPPTRVNHRIHLRAARGKNDFGLELLPLPMREWLLRQGITCAEMAGNETTALNCATTLYEVQMQRGMLEDLPPISEEGVTEKRYEDKAGVPPFPLPSENEGGALEPLLSAGDPESLFSDWERLDGGSQGEVFKAVRVVDGRKVAIKRITVRGDHKVPQSLVKEMSLLKALHHPNIVTLYDCYRKGKHLFLAMELMDGGKLTDLLIPSEGEPVEFTEAQLATLIREVLRALRCLHNARCVHRDVKSDNVLLSSNGEVKLGDFGFATLLTSPGGMRRTLVGTPYWMAPEVAGGKAYNDKADVWSAGILFLEMCDGQPPLMGMNPMRALLTVSTGPPPVMRTANRWSSLCREFASFLLVKDPARRPSVDDALRHPFIVKKAEPTCRFVATILQRRK,soluble
18,GTGGAAATTYGAACAGGTGAATTTGAAGATATTGCGGGCATTACCGACATCTTTAACTTTTATATTGAACAAACCAATGCACGCTTTGAGGAATTTCCATTTACTCTGGAAAATCGTGAGGAATGGTTCTCTCAGTTTTCTAGAACCGCCAAATATCAAATATATGTGGCTGTAGAAAACGGTGTGTTGCAAGGTTTTGCATGTTCCCAAAAGTACAGAGCAATACCAGCTTTTGATGACACTGTAGAGGTGAGCGTTTATCTGGCACAAGAAGCTAAAGGGAAAGGTTTAGGTTCGAAGCTTTATACTCAGCTGTTTTCATCCATTCGTGCTTATGGCGTCCATCGTATATTGTCGGGTGTTGCATTACCAAATGACGCATCAGTAGCATTACATAAACGGTTTGGTTTCCGAGAAGTCGGCATTTCCAACGAATATGCCAAGAAACATGGGCAGTACATCAGCTCGTTGTGGTTAGAAAAAGCGCTTAACGTAGAGTCCGCTTTATAA,not soluble
19,MFLQSNEHVGTYYAAVNPELIQPRQALEGDLDCEVLVVGAGFSGLHTALRLVEGGRQVCVIEASRIAWAASGRNGGQALPGWSSDLPPLEADLGYEGARRLWDGMLWAAGEMRELPQRHGFDCDYRVGHLWTAILPRRVGLLYDWQAEANRRWGYEGLRFVAKDELPEWIASERYLAGLYDPHAAHLNPLKLAFGLAAAIERAGGRIHERTRALNYREEGDGYRVRTEHGEIRCAALVLACNAYIDGLDSELSQRMLPVGTYQVATEPLGEERAKSLLPRNCCVTDNQFVLDYFRLTPDHRLLFGGGCTYLGGMPSDIRAATRPYLERVFPQLRGVALEYAWGGHIDCSMRRTPDIGRQGNRYWLQGYSGHGVLPSLAAARAVSDALLGDDETLALYQRLRNPKFPGGQRFAAPLEALGKAYYRLRDLFLEHHHHHH,not soluble
20,MNYSLEDLPNSGKNPRVYMDIVLNNEIIGRLQIKLFRDAFPAGVENFVQLTNGKTYRVNSNGTGKYKYNRHINRTYEGCKFHNVLHNNYIVSGDIYNSNGSSAGTVYCDEPIPPVFGDYFYPHESKGLLSLVPYTDESGNRYYDSTFMITLDDIRPSNVLDELDRDQVVIGQVYGGLDVLDKINSMIKPYAGRKYPTFSIGKCGAYLDSSQAQRKRPVNVNGTKRFLNKPTRVN,soluble
21,GMDVLQKEIDEVYATHPTAHEALDNGIVEQHQQFVRSLTEVNGGCAVISDLSNRKSYVTVHPWANFLGLTPEEAALSVIDSMDEDCIYRRIHPEDLVEKRLMEYKFFQKTFSMSPGERLKYRGRCRLRMMNEKGVYQYIDNLVQIMQNTPAGNVWLIFCLYSLSADQRPEQGIYATITQMERGEVETLSLSEEHRNILSEREKEILRCIRKGLSSKEIAATLYISVNTVNRHRQNILEKLSVGNSIEACRAAELMKLL,soluble
